The labels stand for the following.
B1: HDV Ribozyme (parent)
chain: GGCCGGCAUGGUCCCAGCCUCCUCGCUGGCGCCGGCUGGGCAACAUUCCGAGGGGACCGUCCCCUCGGUAAUGGCGAAUGGGACCCA

Variants of B1 are the subject of the data set. Nature of the data set: self-cleavage, relative activity (ratio to wild type); higher = more cleavage; co-transcriptional.
Turning to GGCCGGCACGGUCCCAGCCUCAUCGCUGGCGCCGGCUGGGCAACAUUCCGAGGGGACCGUCCCCUCGGUAAUGGCGAAUGGGACCCA [U9C C22A], the self-cleavage came to 0.192. Under GGCCGGCACGGUCCCAGCCUCCUCGCUGGCGCCUGCUGGGCAACAUUCCGAGGGGACCGUCCCCUCGGUAAUGGCGAAUGGGACCCA [U9C G34U] stands 0.178. The result for GGCCGGCACGGUCCCAGCCUCCUCGCUGGCGCCGUCUGGGCAACAUUCCGAGGGGACCGUCCCCUCGGUAAUGGCGAAUGGGACCCA [U9C G35U] reads 0.135; that for GGCCGGCACGGUCCCAGCCUCCUCGCUGGCGCCGACUGGGCAACAUUCCGAGGGGACCGUCCCCUCGGUAAUGGCGAAUGGGACCCA [U9C G35A], 0.394; that for GGCCGGCACGGUCCCAGCCUCCUCGCUGGCGCCGGCUGAGCAACAUUCCGAGGGGACCGUCCCCUCGGUAAUGGCGAAUGGGACCCA [U9C G39A], 0.567. The result for GGCCGGCAGGGUGCCAGCCUCCUCGCUGGCGCCGGCUGGGCAACAUUCCGAGGGGACCGUCCCCUCGGUAAUGGCGAAUGGGACCCA [U9G C13G] reads 0.111; that for GGCCGGCACGGUCCCAGCCUCCUCGGUGGCGCCGGCUGGGCAACAUUCCGAGGGGACCGUCCCCUCGGUAAUGGCGAAUGGGACCCA [U9C C26G], 0.886. In the case of GGCCGGCAGGGUCCCAGCCUCCUCGCUGGCGCCGGCUGGGCAACAUUCCGAGGGGACCGUCCCCUCGGUCAUGGCGAAUGGGACCCA [U9G A70C], the self-cleavage worked out at 0.886.

In the case of GGCCGGCAGGGUCCCAGCCUCCUCGCUGGCGCCGGCUGGGCAACAUUCCGAGGGGACCGUCCCCUCGGUUAUGGCGAAUGGGACCCA [U9G A70U], the self-cleavage worked out at 0.739.

Take GGCCGGCACGGUCCCAGCCUCCUCGCUGGCGCCGGCUGGGCAACAUUCCGAGGGGACCGUCCCCUCGGUAAUGGCGAAUGGAACCCA [U9C G82A]: the self-cleavage was 0.266. Under GGCCGGCACGGUCCCAGCCUCCUCGCUGGCGCCGGCUGGGCAACAUUCCGAGGGGACCGUCCCCUCGGUAAUGGCGAAUGGCACCCA [U9C G82C] stands 0.262; under GGCCGGCACGGUCCCAGCCUCCUCGCUGGCGCCGGCUGGGCAAGAUUCCGAGGGGACCGUCCCCUCGGUAAUGGCGAAUGGGACCCA [U9C C44G], 0.63; under GGCCGGCACGGUCCCAGCCUCCUCGCUGGCGCCGGCUGGGCAACAUUACGAGGGGACCGUCCCCUCGGUAAUGGCGAAUGGGACCCA [U9C C48A], 0.911. With GGCCGGCAGGGUCCCAGCAUCCUCGCUGGCGCCGGCUGGGCAACAUUCCGAGGGGACCGUCCCCUCGGUAAUGGCGAAUGGGACCCA [U9G C19A], the self-cleavage worked out at 0.208. Under GGCCGGCACGGUCCCAGCCUCCUCGCUGGCGCCGGCUGGGGAACAUUCCGAGGGGACCGUCCCCUCGGUAAUGGCGAAUGGGACCCA [U9C C41G] stands 0.831; under GGCCGGCACGGUCCCAGCCUCCUCGCUGGCGCCGGCUGGGCAACAUUCCGAGGGGACCGUCCCCUAGGUAAUGGCGAAUGGGACCCA [U9C C66A], 1.04; under GGCCGGCACGGUCCCAGCCUCCUCUCUGGCGCCGGCUGGGCAACAUUCCGAGGGGACCGUCCCCUCGGUAAUGGCGAAUGGGACCCA [U9C G25U], 0.104. Under GGCCGGCACGGUCCCAGCCUCCUCGCUGGCGCCGGCUGGGCAACAUUCCGAGGGGACCGUCCGCUCGGUAAUGGCGAAUGGGACCCA [U9C C63G] stands 0.831.

In the case of GGCCGGCACGGUCCCAGCCUCCUCGCUGGCGCCGGCUGGGCAACAUUCCGAGGGGACCGUCCUCUCGGUAAUGGCGAAUGGGACCCA [U9C C63U], the self-cleavage was 0.987. Under GGCCGGCACGGUCCCAGCCUCCUCGCUGGCGCCGGCUGGGCAACAUUCCGAGCGGACCGUCCCCUCGGUAAUGGCGAAUGGGACCCA [U9C G53C] stands 1.15; under GGCCGGCAGGGUCCCAGCCUCCUCGCUGGCGCCGGCUGGGCUACAUUCCGAGGGGACCGUCCCCUCGGUAAUGGCGAAUGGGACCCA [U9G A42U], 0.587; under GGCCGGCACGGUCCCAGCCUCCUCGCUGUCGCCGGCUGGGCAACAUUCCGAGGGGACCGUCCCCUCGGUAAUGGCGAAUGGGACCCA [U9C G29U], 0.115. Under GGCCGGCACGGUCCCAGCCUCCUCGCUGCCGCCGGCUGGGCAACAUUCCGAGGGGACCGUCCCCUCGGUAAUGGCGAAUGGGACCCA [U9C G29C] stands 0.138; under GGCCGGCAGGGUCCCAGCCUCCUCGCUGGCGCCGGCUGGGCAACAUUCCGAGGGGACCGUCCCCUCGGUAAUGGCGAAUGGGACCCA [U9G], 1.02. The result for GGCCGGCAGGGUCGCAGCCUCCUCGCUGGCGCCGGCUGGGCAACAUUCCGAGGGGACCGUCCCCUCGGUAAUGGCGAAUGGGACCCA [U9G C14G] reads 1.2; that for GGCCGGCAGGGUCUCAGCCUCCUCGCUGGCGCCGGCUGGGCAACAUUCCGAGGGGACCGUCCCCUCGGUAAUGGCGAAUGGGACCCA [U9G C14U], 1.08; that for GGCCGGCAGGGUCCCAGCCUCCUCGCUGGCGCCGGCUGGGCAACAUUCCGAGGGGACCGUCCCCUCGGUAAUGGCGAUUGGGACCCA [U9G A78U], 0.0692. Consider GGCCGGCACGGUCCCAGCCUCCUCGCUGGCGCCGGCUGGGCAACAGUCCGAGGGGACCGUCCCCUCGGUAAUGGCGAAUGGGACCCA [U9C U46G], for which the self-cleavage is 1.19. For GGCCGGCACGAUCCCAGCCUCCUCGCUGGCGCCGGCUGGGCAACAUUCCGAGGGGACCGUCCCCUCGGUAAUGGCGAAUGGGACCCA [U9C G11A], the self-cleavage was determined as 0.0755. The result for GGCCGGCACGGUCCCAGCCUCCUCGCUGGCGCCGGCUGGGCAACAUUCCGAGGGGACCGUCCCCUCGGUAAUGCCGAAUGGGACCCA [U9C G74C] reads 0.277; that for GGCCGGCAGGGUCCCAGCCUCCUCGCUGGCGCCGGCUGGGCAACCUUCCGAGGGGACCGUCCCCUCGGUAAUGGCGAAUGGGACCCA [U9G A45C], 0.712; that for GGCCGGCACGGUCCCAGCCUCCUCGCUGGAGCCGGCUGGGCAACAUUCCGAGGGGACCGUCCCCUCGGUAAUGGCGAAUGGGACCCA [U9C C30A], 0.458. Under GGCCGGCAGGGUCCCAGCCUCCUCGAUGGCGCCGGCUGGGCAACAUUCCGAGGGGACCGUCCCCUCGGUAAUGGCGAAUGGGACCCA [U9G C26A] stands 1.23; under GGCCGGCAGGGUCCCAGCCUCCUGGCUGGCGCCGGCUGGGCAACAUUCCGAGGGGACCGUCCCCUCGGUAAUGGCGAAUGGGACCCA [U9G C24G], 0.453.

As to GGCCGGCACGGUCCCAGCCUCCUCGCUGGCGCCGGCUGGGCAACAUUCCGAGGGGACCGUCCCCUCGGUAAUGGCGAAUGCGACCCA [U9C G81C], the self-cleavage stood at 0.598. The result for GGCCGGCACGGUCCCAGCCUCCUCGCUGGCGCCGGCUGGGCAACAUUCCGAGGUGACCGUCCCCUCGGUAAUGGCGAAUGGGACCCA [U9C G54U] reads 0.937; that for GGCCGGCACGGUCCCAGCCUCCUCGCUGGCGCCGGCUGGGCAACAUUCCGAGGCGACCGUCCCCUCGGUAAUGGCGAAUGGGACCCA [U9C G54C], 1.11. With GGCCGGCACGGUCCCAGCCUCCUCGCUGGCGCCGGCGGGGCAACAUUCCGAGGGGACCGUCCCCUCGGUAAUGGCGAAUGGGACCCA [U9C U37G], the self-cleavage came to 0. The result for GGCCGGCACGGUCCCAGCCUCCUCGCUGGCGCCGGCAGGGCAACAUUCCGAGGGGACCGUCCCCUCGGUAAUGGCGAAUGGGACCCA [U9C U37A] reads 0.289.

Turning to GGCCGGCAGGGUCCCAGCCUCCUCGCUGGCGCCGGCUGGGCAACAUUCCGAGGGGCCCGUCCCCUCGGUAAUGGCGAAUGGGACCCA [U9G A56C], the self-cleavage was determined as 0.462. Under GGCCGGCAGGGUCCCAGCCUCCUCGCUGGCGCCGGCUGGGCAACAUUCCGAGGGGACCGUCCCCUCGGUAAUGGCGGAUGGGACCCA [U9G A77G] stands 0.767; under GGCCGGCACGGUCCCAGCCUCCUCGCUGGCGCCGGCUGGGCAACAUUCCGAGGGGACCGUCCCCUCCGUAAUGGCGAAUGGGACCCA [U9C G67C], 0.703; under GGCCGGCACGGUCCCAGCCUCCUCGCUGGCGCCGGCUGGGCAACAUUCCGAGGGGACCGUCCCCUCUGUAAUGGCGAAUGGGACCCA [U9C G67U], 1.12. Turning to GGCCGGCACGGUCCCAGCCUCCUCGCUGGCGCCGGCUGGGCAACAUUCCGAGGGGACCGUCCCCUCGGUAAUUGCGAAUGGGACCCA [U9C G73U], the self-cleavage was determined as 0.383. Under GGCCGGCAGGGUCCCAGCCUCCUCGCUGGCGCCGGCUGGGCAACAUUCCGAGGGGACCGUCCCCUCGGUAAUGGCGAAUGGGACCCG [U9G A87G] stands 1.15; under GGCCGGCACGGUCCCAGCCUCCUCGCUGGCGCCGGCUGGGCAACAUUCCGAUGGGACCGUCCCCUCGGUAAUGGCGAAUGGGACCCA [U9C G52U], 1.06; under GGCCGGCACGGUCCCAGCCUCCUCGCUGGCGCCGGCUGGGCAACAUUCCGAAGGGACCGUCCCCUCGGUAAUGGCGAAUGGGACCCA [U9C G52A], 1.04. Turning to GGCCGGCACGGUCCCAGCCUCCGCGCUGGCGCCGGCUGGGCAACAUUCCGAGGGGACCGUCCCCUCGGUAAUGGCGAAUGGGACCCA [U9C U23G], the self-cleavage was determined as 0.831. Under GGCCGGCACGGUCCCAGCCUCCACGCUGGCGCCGGCUGGGCAACAUUCCGAGGGGACCGUCCCCUCGGUAAUGGCGAAUGGGACCCA [U9C U23A] stands 1.13; under GGCCGGCACGGUCCCAGCCUCCUCGCUGGCGCCGGCUGGGCAACAUUCCGAGGGGACCGUCCCCUCGGUAAAGGCGAAUGGGACCCA [U9C U72A], 0.587. The result for GGCCGGCACGGUCCCAGCCUCCUCGCUGGCGCCGGCUGGGCAACAUUCCGAGGGGAUCGUCCCCUCGGUAAUGGCGAAUGGGACCCA [U9C C57U] reads 0.95. The result for GGCCGGCACGGUCCCAGCCUCCUCGCUGGCGCCGGCUGGGCAACAUACCGAGGGGACCGUCCCCUCGGUAAUGGCGAAUGGGACCCA [U9C U47A] reads 1.11.

Take GGCCGGCACGGUCCCAGCCUCCUCGCUGGCGCCGGCUGGGCAACAUUCCGAGGGGACCGUCCCCUCGGUAAUGGCCAAUGGGACCCA [U9C G76C]: the self-cleavage is 1.11. The result for GGCCGGCACGGUCCCAGCCGCCUCGCUGGCGCCGGCUGGGCAACAUUCCGAGGGGACCGUCCCCUCGGUAAUGGCGAAUGGGACCCA [U9C U20G] reads 0.443. Under GGCCGGCACGGUCCCAGCCUCCUCGCUGGCGCCGGCUGGGCAACAUUCCGAGGGGACCGUCCCAUCGGUAAUGGCGAAUGGGACCCA [U9C C64A] stands 0.831; under GGCCGGCACAGUCCCAGCCUCCUCGCUGGCGCCGGCUGGGCAACAUUCCGAGGGGACCGUCCCCUCGGUAAUGGCGAAUGGGACCCA [U9C G10A], 0.985; under GGCCGGCACGGUCCCAGCCUCCUCGCUGGCGCCGGCUGGGCAACAUUCCGAGGGGACCGUCCCCUCGGUAAUGGCGAAUGGGACACA [U9C C85A], 0.969.

Turning to GGCCGGCACGGUCCCAGCAUCCUCGCUGGCGCCGGCUGGGCAACAUUCCGAGGGGACCGUCCCCUCGGUAAUGGCGAAUGGGACCCA [U9C C19A], the self-cleavage stood at 0.175.

For the variant GGCCGGCACGGUCCCAGCCUCCUCGCUGGCGCCGGCUGGGCAACAUUCCGAGGGGACCGUCCCCUCGGUAAUGGCGAAAGGGACCCA [U9C U79A], the self-cleavage stood at 0.831. The result for GGCCGGCACGGUCCCAGCCUCCUCGCUGGCGCCGGCUGGGCAACAUUCCGAGGGGACCGUCCCCUCGGUAAUGGCGAAUGGGACCAA [U9C C86A] reads 1.03; that for GGCCGGCACGGUCCCAGCCUCCUCGCUGGCGCGGGCUGGGCAACAUUCCGAGGGGACCGUCCCCUCGGUAAUGGCGAAUGGGACCCA [U9C C33G], 0.249. As to GGCCGGCACGGUCCCAGCCUCCUCGCUGGCGCCGGCUGGGCAACAUUCCGAGGGCACCGUCCCCUCGGUAAUGGCGAAUGGGACCCA [U9C G55C], the self-cleavage is 0.703. The result for GGCCGGCACGGUCCCAGCCUCCUCGCUGGCGCCGGCUGGGCAACAUUCCGAGGGAACCGUCCCCUCGGUAAUGGCGAAUGGGACCCA [U9C G55A] reads 1.27; that for GGCCGGCACGGUCCCAGCCUCCUCGCUGGCGCCGGCUGGGCAACAUUCCGAGGGUACCGUCCCCUCGGUAAUGGCGAAUGGGACCCA [U9C G55U], 1.2.
